Test results reported in patent US20200354425A1 (DONG-A ST CO., LTD., published 2020).
Like-named read-outs stand apart in the source and are kept apart here. *1 amine or outer side, *2 acyl side, *3 side chain or, on linkers, in order; H or OH if unused. Bridges are numbered along the chain shown (N, C = ends). Where no end group is shown, it is not given here. Side-chain parts run from the residue outwards. [ ]: non-standard residue; d: D form. The star is where a group is joined. γGlu = O=C(O)[C@H](CCC(=O)[*:2])N[*:1]; Stearoyl = CCCCCCCCCCCCCCCCCC(=O)*; AEEA = NCCOCCOCC(=O)O; Aib = CC(C)(N)C(=O)O

Experiments:
Human GLP-1 receptor [1] = target: T1, Human GLP-1 receptor (human, UniProt P43220)
Human glucagon receptor [2] = target: T2, Human glucagon receptor (human, UniProt P47871)
Human GLP-1 receptor [3] = target: T1, Human GLP-1 receptor; assay: cell-based or functional assay
Human glucagon receptor [4] = target: T2, Human glucagon receptor; assay: cell-based or functional assay

| Molecule | EC50(pM), CRE-driven luciferase activity (Human GLP-1 receptor [1]) [pM] | EC50(pM), CRE-driven luciferase activity (Human glucagon receptor [2]) [pM] | EC50(pM), CRE-driven luciferase activity (Human GLP-1 receptor [3]) [pM] | EC50(pM), CRE-driven luciferase activity (Human glucagon receptor [4]) [pM] |
| --- | --- | --- | --- | --- |
| MEDI0382 (peptide) | < 10 | 10 to 100 | – | – |
| H[Aib]QGTFTSDK([AEEA-AEEA-γGlu-Stearoyl])SKYLDKRRAEDFVQWLMNTK (linker 16-20 via 4‑carbonylpiperidin‑1‑yl) [Compound 32] | – | – | < 10 | < 10 |
| HXQGTFTSDXSKYLDERRAKDFVQWLMNTK (Aib at position 2; Z at position 10 = Lys([(2-(2-(2-aminoethoxy)ethoxy)acetoyl)2]-[gamma glutamicacid]-[octadecanoyl]); a ring formed between E and K (positions 16 and 20) via 1-aminocyclohexan-4-carbonyl cross-link) [Compound 33] | – | – | < 10 | < 10 |
| HXQGTFTSDXSKYLDXRRAQDFVQWLMNTK (Aib at positions 2 and 16; Z at position 10 = Lys([(2-(2-(2-aminoethoxy)ethoxy)acetoyl)2]-[gammaglutamicacid]-[17-carboxyheptadecanoyl])) [Compound 43] | – | – | > 1000 | > 1000 |
| H-H[Aib]QGTFTSDYSKYLDEKRAKEFVQWLMNTKC-OH (lactam 16-20; SMILES CSCC[C@H](NC(=O)[C@H](CC(C)C)NC(=O)[C@H](Cc1c[nH]c2ccccc12)NC(=O)[C@H](CCC(N)=O)NC(=O)[C@@H](NC(=O)[C@H](Cc1ccccc1)NC(=O)[C@H](CCC(=O)O)NC(=O)[C@@H]1CCCCNC(=O)CC[C@H](NC(=O)[C@H](CC(=O)O)NC(=O)[C@H](CC(C)C)NC(=O)[C@H](Cc2ccc(O)cc2)NC(=O)[C@H](CCCCN)NC(=O)[C@H](CO)NC(=O)[C@H](Cc2ccc(O)cc2)NC(=O)[C@H](CC(=O)O)NC(=O)[C@H](CO)NC(=O)[C@@H](NC(=O)[C@H](Cc2ccccc2)NC(=O)[C@@H](NC(=O)CNC(=O)[C@H](CCC(N)=O)NC(=O)C(C)(C)NC(=O)[C@@H](N)Cc2c[nH]cn2)[C@@H](C)O)[C@@H](C)O)C(=O)N[C@@H](CCCCN)C(=O)N[C@@H](CCCNC(=N)N)C(=O)N[C@@H](C)C(=O)N1)C(C)C)C(=O)N[C@@H](CC(N)=O)C(=O)N[C@H](C(=O)N[C@@H](CCCCN)C(=O)N[C@@H](CS)C(=O)O)[C@@H](C)O) [Compound 47] | – | – | < 10 | – |
| HXQGTFTSDXSKYLDXRRAQDFVQWLMNTK (not fully specified; Aib at positions 2 and 16; Z at position 10 = Lys([(2-(2-(2-aminoethoxy)ethoxy)acetoyl)2]-[gammaglutamicacid]-[15-carboxypeptadecanoyl]) (so in the source)) [Compound 42] | – | – | – | > 1000 |
| HXQGTFTSDXSKYLDERRAKDFVQWLMNTK (Aib at position 2; Z at position 10 = Lys([(2-(2-(2-aminoethoxy)ethoxy)acetoyl)4]-[gamma glutamicacid]-[octadecanoyl]); lactam ring formed between E and K (positions 16 and 20)) [Compound 25] | – | – | < 10 | < 10 |
| HXQGTFTSDXSKYLDERRAKDFVQWLMNTK (Aib at position 2; Z at position 10 = Lys([(2-(2-(2-aminoethoxy)ethoxy)acetoyl)2]-[gamma glutamicacid]-[octadecanoyl]); lactam ring formed between E and K (positions 16 and 20); C-terminal amide (-NH2)) [Compound 19] | – | – | < 10 | < 10 |
| HXQGTFTSDXSKYLDXRRAQDFVQWLMNTK (Aib at positions 2 and 16; Z at position 10 = Lys([(2-(2-(2-aminoethoxy)ethoxy)acetoyl)]-[gamma glutamicacid]-[octadecanoyl])) [Compound 17] | – | – | < 10 | < 10 |
| HSQGTFTSDXSKYLDSRRAQDFVQWLMNTK (Z at position 10 = Lys([(2-(2-(2-aminoethoxy)ethoxy)acetoyl)2]-[gamma glutamicacid]-[octadecanoyl]); C-terminal amide (-NH2)) [Compound 4] | – | – | < 10 | – |
| H[Aib]QGTFTSDYSKYLDK([AEEA-AEEA-γGlu-Stearoyl])RRAQDFVQWLMNTK [Compound 15] | – | – | < 10 | < 10 |
| H[Aib]QGTFTSK([AEEA-AEEA-γGlu-Stearoyl])YSKYLD[Aib]RRAQDFVQWLMNTK [Compound 40] | – | – | – | > 1000 |
| H-H[Aib]QGTFTSDK([AEEA-AEEA-γGlu-Stearoyl])SKYLDDRRAKDFVQWLMNTK-OH (bridge 16-20; not fully specified (bridges); printed as H-HAibQGTFTSDZSKYLDDRRAKDFVQWLMNTK-OH) [Compound 37] | – | – | < 10 | < 10 |
| H[Aib]QGTFTSDYSKYLD[Aib]RRAK([AEEA-AEEA-γGlu-Stearoyl])DFVQWLMNTK [Compound 16] | – | – | < 10 | < 10 |
| H[Aib]QGTFTSDKSKYLD[Aib]RRAQDFVQWLMNTK [Compound 39] | – | – | > 1000 | > 1000 |
| HXQGTFTSDXSKYLDERRAEDFVQWLMNTK (Aib at position 2; Z at position 10 = Lys([(2-(2-(2-aminoethoxy)ethoxy)acetoyl)2]-[gamma glutamicacid]-[octadecanoyl]); a ring formed between E and E (positions 16 and 20) via 1,2-ethylenediamino cross-link) [Compound 30] | – | – | < 10 | < 10 |
| HXQGTFTSDXSKYLDXRRAQDFVQWLMNTK (not fully specified; Aib at positions 2 and 16; Z at position 10 = Lys([(2-(2-(2-aminoethoxy)ethoxy)acetoyl)2]-[gammaglutamicacid]-[19-carboxypeptadecanoyl]) (so in the source)) [Compound 44] | – | – | – | > 1000 |
| HXQGTFTSDXSKYLDERRAEDFVQWLMNTK (Aib at position 2; Z at position 10 = Lys([(2-(2-(2-aminoethoxy)ethoxy)acetoyl)2]-[gamma glutamicacid]-[octadecanoyl]); a ring formed between E and E (positions 16 and 20) via 1,4-phenylenediamino cross-link) [Compound 29] | – | – | < 10 | < 10 |
| H[Aib]QGTFTSDK([AEEA-AEEA-γGlu-Stearoyl])SKYLDDRRAKDFVQWLMNTK (lactam 16-20) [Compound 26] | – | – | < 10 | < 10 |

| Molecule | EC50(pM), CRE-driven luciferase activity (Human GLP-1 receptor [1]) [pM] | EC50(pM), CRE-driven luciferase activity (Human glucagon receptor [2]) [pM] | EC50(pM), CRE-driven luciferase activity (Human GLP-1 receptor [3]) [pM] | EC50(pM), CRE-driven luciferase activity (Human glucagon receptor [4]) [pM] |
| --- | --- | --- | --- | --- |
| HXQGTFTSDXSKYLDXRRAQDFVQWLMNTK (Aib at positions 2 and 16; Z at position 10 = Lys([(2-(2-(2-aminoethoxy)ethoxy)acetoyl)2]-[gamma glutamicacid]-[octadecanoyl])) [Compound 3] | – | – | < 10 | < 10 |
| HXQGTFTSDXSKYLDXRRAQDFVQWLMNTKRNRNNIA (Aib at positions 2 and 16; Z at position 10 = Lys([(2-(2-(2-aminoethoxy)ethoxy)acetoyl)2]-[gamma glutamicacid]-[octadecanoyl])) [Compound 7] | – | – | < 10 | < 10 |
| H[Aib]QGTFTSDK([AEEA-AEEA-γGlu-Stearoyl])SKYLDCRRACDFVQWLMNTK (linker 16-20 via 1,3‑phenyhenedimethyl) [Compound 22] | – | – | < 10 | < 10 |
| H[Aib]QGTFTSDK([AEEA-AEEA-γGlu-Stearoyl])SKYLDKRRAEDFVQWLMNTK (lactam 16-20) [Compound 21] | – | – | < 10 | < 10 |
| HXQGTFTSDXSKYLDXRRAQDFVQWLMNTK (Aib at positions 2 and 16; Z at position 10 = Lys([(2-(2-(2-aminoethoxy)ethoxy)acetoyl)2]-[gamma glutamicacid]-[octadecanoyl]); C-terminal amide (-NH2)) [Compound 6] | – | – | < 10 | < 10 |
| HXQGTFTSDXSKYLDERRAKDFVQWLMNTK (Aib at position 2; Z at position 10 = Lys([(2-(2-(2-aminoethoxy)ethoxy)acetoyl)2]-[gamma glutamicacid]-[octadecanoyl]); lactam ring formed between E and K (positions 16 and 20)) [Compound 14] | – | – | < 10 | < 10 |
| H[Aib]QGTFTSDK([AEEA-AEEA-γGlu-Stearoyl])SKYLDKRRADDFVQWLMNTK (lactam 16-20) [Compound 27] | – | – | < 10 | < 10 |
| H[Aib]QGTFTSDK([AEEA-AEEA-γGlu-Stearoyl])SKYLDSRRAQDFVQWLMNTK [Compound 2] | – | – | < 10 | < 10 |
| HXQGTFTSDXSKYLDERRAKDFVQWLMNTK (not fully specified; Aib at position 2; Z at position 10 = Lys([(2-(2-(2-aminoethoxy)ethoxy)acetoyl)2]-[gamma glutamicacid]-[octadecanoyl]); a ring formed between E and K (positions 16 and 20) via leucine cross-link) [Compound 36] | – | – | < 10 | < 10 |
| HXQGTFTSDXSKYLDXRRAQDFVQWLMNTK (Aib at positions 2 and 16; Z at position 10 = Lys([(2-(2-(2-aminoethoxy)ethoxy)acetoyl)3]-[gamma glutamicacid]-[octadecanoyl])) [Compound 10] | – | – | < 10 | < 10 |
| H[Aib]QGTFTSDK([AEEA-AEEA-γGlu-Stearoyl])SKYLD[Aib]RRAQDFVQWLLRAK [Compound 12] | – | – | < 10 | < 10 |
| HXQGTFTSDXSKYLDERRAEDFVQWLMNTK (Aib at position 2; Z at position 10 = Lys([(2-(2-(2-aminoethoxy)ethoxy)acetoyl)2]-[gamma glutamicacid]-[octadecanoyl]); a ring formed between E and E (positions 16 and 20) via 1,4-piperazinyl cross-link) [Compound 23] | – | – | < 10 | < 10 |
| HXQGTFTSDXSKYLDERRAKDFVQWLMNTK (not fully specified; Aib at position 2; Z at position 10 = Lys([(2-(2-(2-aminoethoxy)ethoxy)acetoyl)2]-[gamma glutamicacid]-[octadecanoyl]); a ring formed between E and K (positions 16 and 20) via glycine cross-link) [Compound 35] | – | – | < 10 | < 10 |
| HXQGTFTSDXSKYLDERRAKDFVQWLMNTK (Aib at position 2; Z at position 10 = Lys([(2-(2-(2-aminoethoxy)ethoxy)acetoyl)3]-[gamma glutamicacid]-[octadecanoyl]); lactam ring formed between E and K (positions 16 and 20)) [Compound 20] | – | – | < 10 | < 10 |
| HXQGTFTSDXSKYLDERRAKDFVQWLMNTK (not fully specified; Aib at position 2; Z at position 10 = Lys([(2-(2-(2-aminoethoxy)ethoxy)acetoyl)2]-[gamma glutamicacid]-[octadecanoyl]); a ring formed between E and K (positions 16 and 20) via 4-aminobenzoyl cross-link) [Compound 34] | – | – | < 10 | < 10 |
| H-H[Aib]QGTFTSDK([AEEA-AEEA-γGlu-Stearoyl])SKYLDDRRAKDFVQWLMNTK-OH (bridge 16-20; not fully specified (bridges); printed as H-HAibQGTFTSDZSKYLDDRRAKDFVQWLMNTK-OH) [Compound 38] | – | – | < 10 | < 10 |
| H[Aib]QGTFTSDK([AEEA-AEEA-γGlu-Stearoyl])SKYLDKRRAKDFVQWLMNTK (linker 16-20 via 1,4‑phenylenebiscarbconyl) [Compound 31] | – | – | < 10 | < 10 |
| HXQGTFTSDXSKYLDXRRAQDFVQWLMNTK (Aib at positions 2 and 16; Z at position 10 = Lys([Gly-Gly-Ser-Gly-Ser-Gly]-[gamma glutamic acid]-[octadecanoyl])) [Compound 11] | – | – | < 10 | – |
